Experimental data as given in the Immune Epitope Database (IEDB).

Experiments:
HLA-B*51:01 [1] = test: IEDB peptide-MHC binding, purified MHC/direct/fluorescence; filed as Kd, often an IC50 or EC50 that approximates it; ≥ and ≤ were set here for values at or beyond the usual limits of such assays
HLA-B*57:01 = test: IEDB peptide-MHC binding, purified MHC/competitive/radioactivity; filed as Kd, often an IC50 or EC50 that approximates it; ≥ and ≤ were set here for values at or beyond the usual limits of such assays
HLA-A*32:01 = test: as above
HLA-B*53:01 = test: as above
HLA-B*08:01 = test: as above; details: source organism: Dengue virus 4 Philippines/H241/1956
HLA-B*51:01 [2] = test: as above; details: source organism: Dengue virus 4 Philippines/H241/1956
HLA-B*58:01 = test: as above
HLA-C*15:02 = test: IEDB peptide-MHC binding, purified MHC/direct/fluorescence; filed as Kd, often an IC50 or EC50 that approximates it; ≥ and ≤ were set here for values at or beyond the usual limits of such assays; details: source organism: West Nile virus
HLA-B*07:02 = test: as above; details: source organism: Vibrio parahaemolyticus
HLA-B*15:01 [3] = test: as above
HLA-A*01:01 = test: IEDB peptide-MHC binding, purified MHC/competitive/fluorescence; filed as Kd, often an IC50 or EC50 that approximates it; ≥ and ≤ were set here for values at or beyond the usual limits of such assays
HLA-A*68:02 [4] = test: IEDB peptide-MHC binding, purified MHC/competitive/radioactivity; filed as Kd, often an IC50 or EC50 that approximates it; ≥ and ≤ were set here for values at or beyond the usual limits of such assays; details: source organism: Dengue virus 2 Jamaica/1409/1983
HLA-B*15:01 [5] = test: IEDB peptide-MHC binding, purified MHC/competitive/fluorescence; filed as Kd, often an IC50 or EC50 that approximates it; ≥ and ≤ were set here for values at or beyond the usual limits of such assays
HLA-A*02:01 = test: as above; details: source organism: Orthohantavirus puumalaense
HLA-B*39:01 = test: as above; details: source organism: Orthohantavirus puumalaense
HLA-A*69:01 = test: as above; details: source organism: Orthohantavirus puumalaense
HLA-B*18:01 = test: as above; details: source organism: Orthohantavirus puumalaense
HLA-B*27:03 = test: as above; details: source organism: Orthohantavirus puumalaense
HLA-A*02:19 = test: IEDB peptide-MHC binding, purified MHC/direct/fluorescence; filed as Kd, often an IC50 or EC50 that approximates it; ≥ and ≤ were set here for values at or beyond the usual limits of such assays; details: source organism: Limestone Canyon virus
HLA-A*02:16 = test: as above; details: source organism: Limestone Canyon virus
HLA-A*02:12 = test: as above; details: source organism: Limestone Canyon virus
HLA-A*02:03 = test: as above; details: source organism: Limestone Canyon virus
HLA-A*02:11 = test: as above; details: source organism: Limestone Canyon virus
HLA-A*03:01 = test: as above; details: source organism: Limestone Canyon virus
HLA-A*26:01 [6] = test: as above; details: source organism: Orthohantavirus moroense
HLA-A*68:02 [7] = test: as above; details: source organism: Limestone Canyon virus
HLA-B*35:01 = test: IEDB peptide-MHC binding, purified MHC/competitive/radioactivity; filed as Kd, often an IC50 or EC50 that approximates it; ≥ and ≤ were set here for values at or beyond the usual limits of such assays; details: source organism: Dengue virus 3 Singapore/8120/1995
HLA-A*23:01 = test: as above; details: source organism: Dengue virus 3 Singapore/8120/1995
HLA-A*24:02 = test: as above; details: source organism: Dengue virus 3 Singapore/8120/1995
HLA-A*26:01 [8] = test: as above; details: source organism: Dengue virus 3 Singapore/8120/1995
HLA-A*02:06 = test: as above; details: source organism: Dengue virus 3 Singapore/8120/1995
[9] = source organism: West Nile virus
[10] = source organism: Dengue virus 4 Philippines/H241/1956
[11] = source organism: Dengue virus 1 Brazil/97-11/1997
[12] = source organism: Escherichia coli str. K-12 substr. MG1655
[13] = source organism: Escherichia coli 536
[14] = source organism: Dengue virus 3 Singapore/8120/1995

For RPAADGKTV, the Kd (HLA-B*51:01 [1]; [9]) was no less than 20000 nM.
KTWGKAKIF was tested, and the Kd (HLA-B*57:01; [10]) was 36.3 nM and the Kd (HLA-A*32:01; [10]) was 60.3 nM.
For MAMTTVLSI, the Kd (HLA-B*53:01; [10]) was 2.34 nM, the Kd (HLA-B*08:01) was 16.3 nM and the Kd (HLA-B*51:01 [2]) was 36.3 nM. It also gave a Kd (HLA-B*58:01; [10]) of 18.9 nM.
With GASTSQETW the Kd (HLA-B*53:01; [11]) was 623 nM, the Kd (HLA-B*57:01; [11]) was 10.2 nM and the Kd (HLA-B*58:01; [11]) was 2.93 nM.
Sequence GGRAHRMAL has a Kd (HLA-B*51:01 [1]; [9]) of no less than 20000 nM and a Kd (HLA-C*15:02) of no less than 20000 nM.
In the case of EPATQTFDM, the Kd (HLA-B*51:01 [1]; source organism: Vibrio parahaemolyticus) is reported as no less than 20000 nM, the Kd (HLA-B*07:02) is reported as 122 nM and the Kd (HLA-B*15:01 [3]; source organism: Vibrio parahaemolyticus RIMD 2210633) is reported as no less than 20000 nM.
Work on WMSNGTWNY yielded a Kd (HLA-A*01:01; source organism: Human immunodeficiency virus 1) of 8.9 nM.
In the case of ESSPNPTIEA, the Kd (HLA-B*57:01; source organism: Dengue virus 2 Jamaica/1409/1983) is reported as 2090 nM and the Kd (HLA-A*68:02 [4]) is reported as 52.3 nM.
For ELACAVPFY, the Kd (HLA-A*01:01; [12]) was no less than 20000 nM and the Kd (HLA-B*15:01 [5]; [12]) was 226 nM.
In the case of ISRNTVKRY, the Kd (HLA-A*01:01; [13]) is reported as no less than 20000 nM and the Kd (HLA-B*15:01 [5]; [13]) is reported as 284 nM.
In the case of ATKDSFQSF, the Kd (HLA-A*02:01) is reported as no less than 20000 nM, the Kd (HLA-B*39:01) is reported as no less than 20000 nM and the Kd (HLA-A*69:01) is reported as no less than 20000 nM. It also gave a Kd (HLA-B*18:01) of no less than 20000 nM, a Kd (HLA-B*27:03) of no less than 20000 nM and a Kd (HLA-A*02:19) of no less than 20000 nM. For the same sequence, the Kd (HLA-A*02:16) was no less than 20000 nM, the Kd (HLA-A*02:12) was no less than 20000 nM and the Kd (HLA-A*02:03) was no less than 20000 nM. The Kd (HLA-A*02:11) was no less than 20000 nM, the Kd (HLA-A*03:01) was no less than 20000 nM and the Kd (HLA-A*26:01 [6]) was 556 nM. For the same sequence, the Kd (HLA-A*68:02 [7]) was no less than 20000 nM and the Kd (HLA-B*15:01 [3]; source organism: Orthohantavirus moroense) was 372 nM.
Work on KTSIGLLCVM yielded a Kd (HLA-B*57:01; source organism: Dengue virus 1 Singapore/S275/1990) of 11.4 nM.
Sequence ERSWNTGFDW has a Kd (HLA-B*58:01; [10]) of 683 nM.
In the case of SATRLENIMW, the Kd (HLA-B*57:01; [11]) is reported as 11.7 nM and the Kd (HLA-B*58:01; [11]) is reported as 69.7 nM.
MIAGVLFTF gave a Kd (HLA-A*32:01; [14]) of 1.88 nM, a Kd (HLA-B*35:01) of 4.73 nM and a Kd (HLA-A*23:01) of 26 nM. It also gave a Kd (HLA-A*24:02) of 50.4 nM, a Kd (HLA-A*26:01 [8]) of 1230 nM and a Kd (HLA-A*02:06) of 22.5 nM. For the same sequence, the Kd (HLA-B*58:01; [14]) was 20.2 nM.
